According to article PMC11676285, “Enhancement of the Thermostability of Microbacterium Esterase by Combinatorial Rational Design” (Molecules, 2024):
Substitutions are numbered along the chain they refer to. Numbers in names are those of the source.

Substrate: COC(=O)[C@@H]1[C@H](C(=O)OC)N(Cc2ccccc2)C(=O)N1Cc1ccccc1
Test: HPLC of biotin monomethyl ester, Michaelis-Menten fit
Assay type: biochemical, Microbacterium aurantiacum
Details: pH 8.0, 0.05 M PBS, 30 °C, substrate 0.1 to 10 mM
Text: HPLC of biotin monomethyl ester, Michaelis-Menten fit on […]01

B1: EstSIT01 (Microbacterium aurantiacum) (protein)
chain: MTLFDGITSRIVDTDRLTVNILERAADDPQTPPDRTVVFVHGNVSSALFWQEIMQDLPSDLRAIAVDLRGFGGSEHAPVDATRGVRDFSDDLHATLEALDIPVAHLVGWSMGGGVVMQYALDHPVLSLTLQSPVSPYGFGGTRRDGSRLTDDDAGCGGGGANPDFIQRLIDHDTSDDAQTSPRSVFRAGYVASDYTTDHEDVWVESMLTTSTADGNYPGDAVPSDNWPGFAAGRHGVLNTMAPQYFDVSGIVDLAEKPPILWIHGTADAIVSDASFYDLNYLGQLGIVPGWPGEDVAPAQEMVSQTRDVLGRYAAGGGTVTEVAVEGAGHSAHLERPAVFRHALLEIIGYVGAAADPAPPTEAIIIRSAD
Km: 150 ± 20 µM | kcat: 7.8 ± 0.31 s⁻¹ | kcat/Km: 51900 M⁻¹ s⁻¹

B2: EstSIT01 (Microbacterium aurantiacum; E301P/G215A/G293A) (protein)
chain: B1 chain with G215A, G293A, E301P
Km: 180 ± 30 µM | kcat: 6.3 ± 0.39 s⁻¹ | kcat/Km: 34900 M⁻¹ s⁻¹

B3: EstSIT01 (Microbacterium aurantiacum; E301P/G215A) (protein)
chain: B1 chain with G215A, E301P
Km: 210 ± 40 µM | kcat: 5.4 ± 0.37 s⁻¹ | kcat/Km: 25600 M⁻¹ s⁻¹

B4: EstSIT01 (Microbacterium aurantiacum; E301P) (protein)
chain: B1 chain with E301P
Km: 220 ± 30 µM | kcat: 5.1 ± 0.28 s⁻¹ | kcat/Km: 23200 M⁻¹ s⁻¹
